Reference: patent publication US20170305994A1 (Novo Nordisk, published 2017)
Like-named read-outs stand apart in the source and are kept apart here.

Legend:
[1] = molecular target: T1, human DR3 with the death domain deleted (ΔM339-P417 of SEQ ID NO:1), expressed on CHOK1SV cells (human, UniProt Q93038 25-338); experiment: flow cytometry competition: Fab vs TL1A on hDR3-expressing CHO cells
T1 construct: also called truncated DR3; hDR3 expressing CHO cells
T1 sequence: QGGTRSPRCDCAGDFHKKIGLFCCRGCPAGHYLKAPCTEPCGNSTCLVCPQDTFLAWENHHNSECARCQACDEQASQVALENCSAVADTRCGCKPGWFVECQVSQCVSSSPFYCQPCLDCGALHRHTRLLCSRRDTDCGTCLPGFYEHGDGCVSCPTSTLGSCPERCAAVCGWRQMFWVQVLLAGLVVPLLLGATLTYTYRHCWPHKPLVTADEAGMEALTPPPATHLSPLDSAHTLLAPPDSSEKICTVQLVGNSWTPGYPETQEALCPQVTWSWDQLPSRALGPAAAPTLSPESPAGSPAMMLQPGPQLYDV

[2] = molecular target: T2, human DR3 (full length, on cells) (human, UniProt Q93038 25-417); experiment: cell-based or functional assay
T2 sequence: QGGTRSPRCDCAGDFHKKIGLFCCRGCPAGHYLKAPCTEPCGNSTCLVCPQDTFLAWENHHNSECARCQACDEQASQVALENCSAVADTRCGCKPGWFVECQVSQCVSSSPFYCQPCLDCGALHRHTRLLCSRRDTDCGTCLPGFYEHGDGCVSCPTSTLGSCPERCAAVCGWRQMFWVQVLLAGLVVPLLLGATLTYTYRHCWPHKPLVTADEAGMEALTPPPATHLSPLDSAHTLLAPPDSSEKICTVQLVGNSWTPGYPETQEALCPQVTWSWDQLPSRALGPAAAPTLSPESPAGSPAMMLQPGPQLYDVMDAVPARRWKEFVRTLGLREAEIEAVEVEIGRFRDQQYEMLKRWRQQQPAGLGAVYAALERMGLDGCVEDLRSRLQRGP

[3] = molecular target: T2, human DR3 (full length, on cells); experiment: cell-based or functional assay; remark: listed apart in the source
[4] = molecular target: T3, DR3 (CRD1)-Fc (human); experiment: SPR
T3 construct: Amino acids 25-71 of DR3 fused to the Fc domain of human IgG4; purified to exclude oligomers (mainly dimeric)
From the text: (§1) The extracellular moiety of DR3 is located at the aminoterminal portion of DR3 and is comprised of four TNF receptor cysteine-rich domains. Several fusion proteins were expressed and purified which contained parts of the extracellular domain of DR3 of increasing length fused to the Fc domain of a human IgG4. The DR3 proteins used for SPR analysis had been purified to exclude oligomerized material. These proteins were immobilized to a CM5 sensor chip using amine coupling chemistry. Binding of anti-DR3 antibodies termed 0070, 0072, 0073 and 0076, to the different DR3-Fc fusion proteins was tested by means of plasmon surface binding measurements on a Biacore T100 instrument (GE Healthcare). All of these antibodies inhibit binding of TL1A to DR3 in a FACS assay. These 4 antibodies bound to recombinant DR3 (CRD1)-Fc protein that contained only the aminoterminal CRD (SEQ ID NO:2) comprised of amino acids 25-71 of DR3.
The same analysis was also performed for some of the Fab fragments.

[5] = molecular target: T2, human DR3 (full length, on cells); experiment: cell-based or functional assay; remark: listed apart in the source
[6] = molecular target: T2, human DR3 (full length, on cells); experiment: cell-based or functional assay; remark: listed apart in the source
[7] = molecular target: T2, human DR3 (full length, on cells); experiment: flow cytometry on IL-12/IL-18/TL1A activated CD4+ T cells, 1 µg/ml
Experimental: (§2) Buffy Coats were obtained from normal healthy volunteers from Copenhagen University Hospital. CD4+ T cells were isolated through magnetic bead separation. Cells were activated with 2 ng/ml IL-12, 50 ng/ml IL-18 and 100 ng/ml TL1A (Flag-HIS-TEV-TL1A-produced at Novo Nordisk A/S) and cultured for 5 days. On day 5 cells were stained with 10, 5, 1, 0.5, 0.1 or 0.0001 μg/ml of the anti-DR3 mAb clones 0072, 0073, or 0077, or with Fab fragment clones 0087, 0088 and 0091. A secondary PE conjugated goat-anti-mouse (H+L) was used for detection.
The greater observed MFI values of IgG treated compared with Fab treated cells was expected since the secondary (detecting) antibody (anti-IgG heavy and light chain) bound to both Fab and Fc parts of the full-length IgG antibody clones, but only to Fab parts of Fab clones (Table 9).

[8] = molecular target: T3, DR3 (CRD1)-Fc; experiment: SPR, Biacore T100, DR3-Fc fusion immobilised
From the text: as §1

[9] = molecular target: T2, human DR3 (full length, on cells); experiment: flow cytometry on CD3/CD28-stimulated human CD4+ T cells
Experimental: Human CD4-positive T cells were purified from Buffy coats using CD4 Rosettesep (Stem cell technologies) and Histopaque (Sigma). T cells were stimulated with CD3/CD28 Dynabeads (Invitrogen) at a 1:1 ratio for 4 days in T75 flask at 2 mio CD4 T cells/ml in RPMI supplemented with 10% fcs. Beads were removed using a magnet, and cells were washed twice before titrating in antibodies on 500.000 cells/staining. Binding saturation was measured after incubation with goat-anti-mouse phycoerythrin (Jackson ImmunoResearch) and cells were subsequently analysed by flow cytometry on a BD LSRII. All antibodies reached saturation at 3 μg/ml.

[10] = molecular target: T2, human DR3 (full length, on cells); experiment: flow cytometry on IL-12/IL-18/TL1A activated CD4+ T cells, 1 µg/ml; remark: listed apart in the source
Experimental: as §2
as §2, with “Material and Methods: Buffy” for “Buffy”, “Copenhagen” for “Copenhagen University”, “0088 or” for “0088 and”, “detection. Samples were in duplicate. Staining intensity was evaluated by FACS.” for “detection.”

B1: 0152 (chimeric Fab of 50F191, human IgG4 constant domain, hinge Cys->Ser) (Fab, V domains shown)
VH: EVQLVESGGGLVEPGGSLKLSCAASGFTFSTYAMSWVRQSPEKRLEWVAEISSGDSYTYYPDIVTGRFTISRDDAKNTLFLEMSSLRSEDTAIYYCVRDQDYRYDGYYAMDHWGQGTSVTVSS
VL: DIVLTQSPASLAVSLGQRATISCRASESVEHYGTSLMQWYQQKPGQPPKLLIYAASNVESGVPARFSGRGSGPDFSLNIHPVEEDDIAMYFCQQSRRIPWTFGGGTKLEIKR
notes: IgG4-Ser, chimeric
IC50 [1]: 0.512 nM
max percentage inhibition [1]: 53%
IC50 at 40 ng/ml TL1A, I5 reporter cells [2]: 2.1 nM
IC50, TNFalpha inhibition, TL1A-activated CD4+ T cells, donor 1 [3]: 0.183 nM
IC50, TNFalpha inhibition, average (n 1) [3]: 0.183 nM
max % inhibition of TNFalpha, donor 1 [3]: 73.5%
binding result [4]: binds

B2: 0072 (murine mAb purified from hybridoma 27F44A2) (antibody, mouse IgG1, V domains shown)
VH: EVKLVESGGGLVKPGGSLKLSCSASGFAFSNYDMSWVRQTPEKRLEWVAAFSSDGYTFYPDSLKGRFTISRDNARNTLYLQMSSLGSEDTALYCCARHADYANYPVMDYWGQGTSVTVSS
VL: DIVLAQSPASLLVSLGQRATISCRASKSVSTSGYSYMHWYQQKPGQPPKLLIYLASNLESGVPARFSGSGSGTDFTLNIHPVEEEDAATYYCQHSRELPLTFGAGTMLELKR
notes: murine IgG1, kappa; also called 0084
fold response, DR3 reporter, 40 ng/ml TL1A + 0.000256 microg/ml [5]: 33.8 fold
fold response, DR3 reporter, 40 ng/ml TL1A + 0.00128 microg/ml [5]: 37.2 fold
fold response, DR3 reporter, 40 ng/ml TL1A + 0.0064 microg/ml [5]: 40.3 fold
fold response, DR3 reporter, 40 ng/ml TL1A + 0.032 microg/ml [5]: 41 fold
fold response, DR3 reporter, 40 ng/ml TL1A + 0.08 microg/ml [5]: 38.4 fold
fold response, DR3 reporter, 40 ng/ml TL1A + 4 microg/ml [5]: 34 fold
fold response, DR3 reporter, 40 ng/ml TL1A + 20 microg/ml [5]: 27.8 fold
fold response, DR3 reporter, 40 ng/ml TL1A + 100 microg/ml [5]: 18.4 fold
fold response, DR3 reporter, no TL1A, 0.000256 microg/ml [5]: 1.1 fold
fold response, DR3 reporter, no TL1A, 0.00128 microg/ml [5]: 2.2 fold
fold response, DR3 reporter, no TL1A, 0.0064 microg/ml [5]: 9.3 fold
fold response, DR3 reporter, no TL1A, 0.032 microg/ml [5]: 18.6 fold
fold response, DR3 reporter, no TL1A, 0.08 microg/ml [5]: 25.1 fold
fold response, DR3 reporter, no TL1A, 4 microg/ml [5]: 21.1 fold
fold response, DR3 reporter, no TL1A, 20 microg/ml [5]: 16.3 fold
fold response, DR3 reporter, no TL1A, 100 microg/ml [5]: 9.2 fold
fold response, DR3 reporter, 40 ng/ml TL1A + 0.1 microg/ml [6]: 29.6 fold
fold response, DR3 reporter, 40 ng/ml TL1A + 1 microg/ml [6]: 24.8 fold
fold response, DR3 reporter, 40 ng/ml TL1A + 10 microg/ml [6]: 23.3 fold
fold response, DR3 reporter, 40 ng/ml TL1A + 100 microg/ml [6]: 13.6 fold
fold response, DR3 reporter, no TL1A, 0.1 microg/ml [6]: 20.6 fold
fold response, DR3 reporter, no TL1A, 1 microg/ml [6]: 19.8 fold
fold response, DR3 reporter, no TL1A, 10 microg/ml [6]: 17.3 fold
fold response, DR3 reporter, no TL1A, 100 microg/ml [6]: 8.5 fold
MFI [7]: 1300 MFI
binding result [8]: binds
Median Fluorescent Intensity [9]: 2650
Staining index (MFI Ab/MFI Isotype) [9]: 11.9
saturation concentration [9]: 3 µg/mL
MFI [10]: 1300 MFI

B3: 0070 (murine mAb purified from hybridoma 27F16A1) (antibody, V domains shown)
VH: EVQLVESGGDFVKPGGSLKLSCAASGFTFNNYGMSWVRQTPDKRLEWVAAISSGVTYTYYPDTVKGRFTISRDNAKNTLYLHMSSLKSEDTAMYYCGRHDDYGNHFDYWGQGTTLTVSS
VL: DIVMTQSPSSLAMSLGQRVTMNCKSSQSLLNSHNQKNYLAWYQQKPGQSPKLLVYFASSRESGVPDRFIGSGSGTDFTLTISSVQAEDLADYFCQQHYSTPFTFGSGTKLEIKR
notes: murine IgG1, kappa; also called 0083
binding result [8]: binds
Median Fluorescent Intensity [9]: 2330
Staining index (MFI Ab/MFI Isotype) [9]: 10.5
saturation concentration [9]: 3 µg/mL
